Source: publication PMC314469, “Protein Interaction Networks by Proteome Peptide Scanning” (PLoS Biology, 2004)

T1: amphyphisin SH3 (AMPH_HUMAN), P49418
T1 chain: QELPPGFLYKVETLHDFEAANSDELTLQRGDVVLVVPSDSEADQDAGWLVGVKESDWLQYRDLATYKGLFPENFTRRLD


Target: T1, amphyphisin SH3 (AMPH_HUMAN), P49418
Assay: SPOT array

Going from RGAQLRRPRHSHPT [Q16360 129-142] to REVSLKRPLGNSPG [P17036 132-145], the normalised SPOT signal, Boehringer light units (BLU); mean over the file's lines of this peptide falls from 53.3 to 39.7.

First: REAALERPRRTKRE [Q96LA8 29-42]
Second: RIIAFSRPVKYEDV [Q99759 56-69]
The normalised SPOT signal, Boehringer light units (BLU); mean over the file's lines of this peptide of the first is higher: 2500 for the first, 113 for the second.

First: RHLAPNRPSKSRTD [Q9NTH0 93-106]
Second: RSWVLRRPMLAAAG [P36776 15-28]
The normalised SPOT signal, Boehringer light units (BLU); mean over the file's lines of this peptide of the first is higher: 530 for the first, 19 for the second.

Going from RGDDLRRPATMKGK [Q96T37 35-48] to RHLSPRRPVSPGKD [P31629 1496-1509], the normalised SPOT signal, Boehringer light units (BLU); mean over the file's lines of this peptide rises from 30 to 60.1.

Compared with ATPLPRRPQPRDLG, RAVDLRRPLLHELL [Q9NXT9 123-136] is lower in normalised SPOT signal, Boehringer light units (BLU); mean over the file's lines of this peptide: 132 for the first, 114 for the second.

First: RAWIPGKPPSPPRG [Q14069 9-23]
Second: AVAIPNRPPDAVLT [P51659 480-494]
The normalised SPOT signal, Boehringer light units (BLU); mean over the file's lines of this peptide of the first is higher: 1950 for the first, 49.8 for the second.

First: RSVRPSRPPRGFQP [O43184 749-763]
Second: RHPRPRRPGGPALR [Q9H7T3 112-125]
The normalised SPOT signal, Boehringer light units (BLU); mean over the file's lines of this peptide of the first is higher: 12400 for the first, 92.1 for the second.

First: REKKPPRPPKKKYQ [Q9NR48 1976-1990]
Second: RASSPKRPGPWSEP [P08922 650-663]
The normalised SPOT signal, Boehringer light units (BLU); mean over the file's lines of this peptide of the first is higher: 56.2 for the first, 48.7 for the second.

Going from RDFIISRPTKLKSL [Q9Y6K5 932-945] to RGFLPYRPPRPAFF [Q96RT6 725-739], the normalised SPOT signal, Boehringer light units (BLU); mean over the file's lines of this peptide rises from 108 to 7280.

Going from RHWRPWRPDKTKKQ [Q9NWH6 590-603] to RSSFPVRPPTASTI [Q9NPY2 259-273], the normalised SPOT signal, Boehringer light units (BLU); mean over the file's lines of this peptide falls from 580 to 167.

Going from RHLILKRPGFQEHE [Q96JB4 119-132] to RHPKPLKPPWHLSM [P41215 45-59], the normalised SPOT signal, Boehringer light units (BLU); mean over the file's lines of this peptide rises from 67.7 to 76.6.

First: RGGPPSKPPAPEDE [P48634 419-433]
Second: RELDLSRPSRSISL [Q12879 1300-1313]
The normalised SPOT signal, Boehringer light units (BLU); mean over the file's lines of this peptide of the first is lower: 38.6 for the first, 3150 for the second.

Compared with RDLIFKRPSRQFQY [Q92797 568-581], ATGTLKRPTSLSRH [Q92619 87-100] is lower in normalised SPOT signal, Boehringer light units (BLU); mean over the file's lines of this peptide: 5070 for the first, 32.9 for the second.

First: RGIQFKRPHTVAPW [O43561 47-60]
Second: REAGFKRPVVLFGP [Q9UDY2 725-738]
The normalised SPOT signal, Boehringer light units (BLU); mean over the file's lines of this peptide of the first is higher: 35.2 for the first, 24.6 for the second.

Compared with RHQRLHRPGRPVPG [Q92657 54-67], REASFKRPVVILGP [O95049 627-640] is higher in normalised SPOT signal, Boehringer light units (BLU); mean over the file's lines of this peptide: 11.8 for the first, 47.4 for the second.

Compared with REDRFRRPRDEGGW [Q14152 1235-1248], RHASPARPPAARSQ [Q96JG1 528-542] is higher in normalised SPOT signal, Boehringer light units (BLU); mean over the file's lines of this peptide: 46 for the first, 434 for the second.

Going from RAQRIRRPFRPILN [Q9NR60 64-77] to RGQEFRRPSTLSEL [P13674 520-533], the normalised SPOT signal, Boehringer light units (BLU); mean over the file's lines of this peptide falls from 180 to 38.7.

Compared with RDAFLKRPISNKYM [Q9H278 225-238], RKFSLERPFRPSVT [Q9BXL7 634-647] is higher in normalised SPOT signal, Boehringer light units (BLU); mean over the file's lines of this peptide: 34.7 for the first, 797 for the second.

Going from RFALFKRPKANGVK [Q9GZY5 40-53] to RGERLPRPDKSPSE [P29597 1130-1143], the normalised SPOT signal, Boehringer light units (BLU); mean over the file's lines of this peptide falls from 19.2 to 3.2.

Going from RILQFPRPVKLEDL [Q9Y2U5 55-68] to RGGPPPRPPPRQSL [Q9HCU4 2874-2888], the normalised SPOT signal, Boehringer light units (BLU); mean over the file's lines of this peptide rises from 108 to 17900.

First: RGAQLRRPRHSHLT [Q13399 123-136]
Second: ATPLPRRPQPRQFF
The normalised SPOT signal, Boehringer light units (BLU); mean over the file's lines of this peptide of the first is lower: 25.3 for the first, 151 for the second.

Target: endophilin SH3 (SH3G2_HUMAN), Q99962
Assay: SPOT array

Compared with RGAQLRRPRHSHPT [Q16360 129-142], REVSLKRPLGNSPG [P17036 132-145] is higher in normalised SPOT signal, Boehringer light units (BLU); mean over the file's lines of this peptide: 40.1 for the first, 55.7 for the second.

Compared with REAALERPRRTKRE [Q96LA8 29-42], RIIAFSRPVKYEDV [Q99759 56-69] is lower in normalised SPOT signal, Boehringer light units (BLU); mean over the file's lines of this peptide: 330 for the first, 79.6 for the second.

Going from RHLAPNRPSKSRTD [Q9NTH0 93-106] to RSWVLRRPMLAAAG [P36776 15-28], the normalised SPOT signal, Boehringer light units (BLU); mean over the file's lines of this peptide rises from 257 to 412.

Compared with RGDDLRRPATMKGK [Q96T37 35-48], RHLSPRRPVSPGKD [P31629 1496-1509] is higher in normalised SPOT signal, Boehringer light units (BLU); mean over the file's lines of this peptide: 144 for the first, 332 for the second.

Compared with ATPLPRRPQPRDLG, RAVDLRRPLLHELL [Q9NXT9 123-136] is lower in normalised SPOT signal, Boehringer light units (BLU); mean over the file's lines of this peptide: 6070 for the first, 67.7 for the second.

First: RAWIPGKPPSPPRG [Q14069 9-23]
Second: AVAIPNRPPDAVLT [P51659 480-494]
The normalised SPOT signal, Boehringer light units (BLU); mean over the file's lines of this peptide of the first is higher: 4770 for the first, 79.1 for the second.

Compared with RSVRPSRPPRGFQP [O43184 749-763], RHPRPRRPGGPALR [Q9H7T3 112-125] is lower in normalised SPOT signal, Boehringer light units (BLU); mean over the file's lines of this peptide: 13300 for the first, 266 for the second.

Compared with REKKPPRPPKKKYQ [Q9NR48 1976-1990], RASSPKRPGPWSEP [P08922 650-663] is lower in normalised SPOT signal, Boehringer light units (BLU); mean over the file's lines of this peptide: 6480 for the first, 66.3 for the second.

First: RDFIISRPTKLKSL [Q9Y6K5 932-945]
Second: RGFLPYRPPRPAFF [Q96RT6 725-739]
The normalised SPOT signal, Boehringer light units (BLU); mean over the file's lines of this peptide of the first is lower: 182 for the first, 13700 for the second.

First: RHWRPWRPDKTKKQ [Q9NWH6 590-603]
Second: RSSFPVRPPTASTI [Q9NPY2 259-273]
The normalised SPOT signal, Boehringer light units (BLU); mean over the file's lines of this peptide of the first is lower: 568 for the first, 3140 for the second.

Going from RHLILKRPGFQEHE [Q96JB4 119-132] to RHPKPLKPPWHLSM [P41215 45-59], the normalised SPOT signal, Boehringer light units (BLU); mean over the file's lines of this peptide rises from 128 to 3220.

First: RGGPPSKPPAPEDE [P48634 419-433]
Second: RELDLSRPSRSISL [Q12879 1300-1313]
The normalised SPOT signal, Boehringer light units (BLU); mean over the file's lines of this peptide of the first is lower: 33.5 for the first, 98.7 for the second.

First: RDLIFKRPSRQFQY [Q92797 568-581]
Second: ATGTLKRPTSLSRH [Q92619 87-100]
The normalised SPOT signal, Boehringer light units (BLU); mean over the file's lines of this peptide of the first is higher: 190 for the first, 23.6 for the second.

Going from RGIQFKRPHTVAPW [O43561 47-60] to REAGFKRPVVLFGP [Q9UDY2 725-738], the normalised SPOT signal, Boehringer light units (BLU); mean over the file's lines of this peptide falls from 28.6 to 23.8.

First: RHQRLHRPGRPVPG [Q92657 54-67]
Second: REASFKRPVVILGP [O95049 627-640]
The normalised SPOT signal, Boehringer light units (BLU); mean over the file's lines of this peptide of the first is higher: 64.3 for the first, 18.3 for the second.

First: REDRFRRPRDEGGW [Q14152 1235-1248]
Second: RHASPARPPAARSQ [Q96JG1 528-542]
The normalised SPOT signal, Boehringer light units (BLU); mean over the file's lines of this peptide of the first is lower: 116 for the first, 4680 for the second.

Compared with RAQRIRRPFRPILN [Q9NR60 64-77], RGQEFRRPSTLSEL [P13674 520-533] is higher in normalised SPOT signal, Boehringer light units (BLU); mean over the file's lines of this peptide: 80.9 for the first, 158 for the second.

Going from RDAFLKRPISNKYM [Q9H278 225-238] to RKFSLERPFRPSVT [Q9BXL7 634-647], the normalised SPOT signal, Boehringer light units (BLU); mean over the file's lines of this peptide falls from 254 to 105.

Going from RFALFKRPKANGVK [Q9GZY5 40-53] to RGERLPRPDKSPSE [P29597 1130-1143], the normalised SPOT signal, Boehringer light units (BLU); mean over the file's lines of this peptide rises from 13.5 to 116.

Going from RILQFPRPVKLEDL [Q9Y2U5 55-68] to RGGPPPRPPPRQSL [Q9HCU4 2874-2888], the normalised SPOT signal, Boehringer light units (BLU); mean over the file's lines of this peptide rises from 119 to 17200.

First: RGAQLRRPRHSHLT [Q13399 123-136]
Second: ATPLPRRPQPRQFF
The normalised SPOT signal, Boehringer light units (BLU); mean over the file's lines of this peptide of the first is lower: 53.2 for the first, 19900 for the second.
